# Laboratory results reported in PMC5395944, “Structural basis of inhibition of lipid-linked oligosaccharide flippase PglK by a conformational nanobody” (Scientific Reports, 2017).
# Values joined by “and” are separate entries in the source; they are usually repeats but may differ in a detail not shown here. Identical values can stand only once.
# B1: Nb87 (inhibitory conformational nanobody against PglK) (VHH)
# VHH: QVQLQESGGGLVQPGGSLRLSCAASGFTFSSYAMSWVRQAPGKGLEWVSAITSGGGSTSYSDAVKGRFTISRDNAKNTLYLQMNSLKPEDTAVYYCAKGYVVDFLDLAEYDSWGQGTQVTVSS
# notes: source: E. coli WK6, periplasmic extract, purified (NiNTA)
# Key:
# [1] = biological target: T1, PglK-E510Q (C. jejuni, UniProt Q0P9C4, E510Q); experiment: crystal structure; conditions: both partners purified
# T1 construct: also called PglK mutant E510Q; source: E. coli BL21-Gold (DE3), purified from membranes in detergent (NiNTA, size exclusion chromatography)
# [2] = biological target: PglK wild type (lipid-linked oligosaccharide flippase, ABC transporter) from Campylobacter jejuni (C. jejuni, UniProt Q0P9C4); experiment: cross-linking; 0.1% glutaraldehyde for 30 min, then high-mass MALDI mass spectrometry; PglK 18 μM and Nb 18 μM (1:2 PglK-homodimer:Nb), 10 mM HEPES pH 7.5, 100 mM NaCl, 0.016% LMNG; without nucleotides or with 5 mM MgCl2 and 5 mM ADP or ATP; conditions: both partners purified
binder,measurement,setting,value
B1,stoichiometry N,[1],1 Nb87 per PglK homodimer
same,stoichiometry N,[2],1 Nb87 per PglK homodimer and 2 Nb87 per PglK homodimer
